Ends that are not written are not given here.
T1: Human 1to19 peptide (human)
T1 construct: First 19 N-terminal amino acids of human CXCR2, captured on neutravidin; also called human CXCR2 1 to19 peptide; 1-19 Nter peptide
T1 peptide: MEDFNMESDSFEDFWKGED-biotin

T2: Human CXCR2 (human, UniProt P25025 1-360)
T2 construct: Some cell lines carry an N-terminal 3xHA tag; also called hCXCR2; huCXCR2
T2 sequence: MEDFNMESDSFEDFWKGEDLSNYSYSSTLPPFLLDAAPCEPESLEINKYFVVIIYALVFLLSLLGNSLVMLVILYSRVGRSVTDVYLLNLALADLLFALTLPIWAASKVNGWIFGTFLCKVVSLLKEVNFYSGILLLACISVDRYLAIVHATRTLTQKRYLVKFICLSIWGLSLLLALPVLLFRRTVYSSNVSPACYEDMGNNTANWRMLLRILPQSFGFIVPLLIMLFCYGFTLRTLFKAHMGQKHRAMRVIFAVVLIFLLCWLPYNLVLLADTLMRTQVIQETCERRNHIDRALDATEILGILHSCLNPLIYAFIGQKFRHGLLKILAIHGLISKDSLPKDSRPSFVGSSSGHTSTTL

T3: Cynomolgus CXCR2 (cynomolgus, UniProt Q28519 3-353 (rhesus entry))
T3 chain: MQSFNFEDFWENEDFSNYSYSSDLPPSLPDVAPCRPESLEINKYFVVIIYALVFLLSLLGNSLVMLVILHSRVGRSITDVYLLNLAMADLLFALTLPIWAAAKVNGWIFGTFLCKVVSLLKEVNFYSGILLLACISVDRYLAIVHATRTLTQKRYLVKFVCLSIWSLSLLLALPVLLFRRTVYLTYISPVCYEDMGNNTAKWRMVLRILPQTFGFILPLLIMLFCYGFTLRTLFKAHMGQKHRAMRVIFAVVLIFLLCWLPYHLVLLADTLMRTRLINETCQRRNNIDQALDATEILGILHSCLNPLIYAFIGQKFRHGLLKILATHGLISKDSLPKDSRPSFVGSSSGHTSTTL


What was measured:
[1] = molecular target: T1, Human 1to19 peptide; assay: ELISA, periplasmic extract on biotinylated peptide
Method: In another setup, periplasmic extracts were analyzed for binding to human 1 to 19 peptide by ELISA. MaxiSorb plates (Nunc, 430341) were coated for two hours with neutravidin followed by one hour blocking (PBS, 1% casein). Then 100 nM biotinylated human 1 to 19 peptide was added to these plates for one hour (PBS, 0.1% casein, 0.05% tween20) followed by one hour incubation with 10-fold dilutions of periplasmic extracts. Unbound periplasmic extracts were washed away (PBS supplemented with 0.05% tween20) and bound Nanobodies were detected using mouse anti-myc (Roche, 11667149001) followed by rabbit anti-mouse-HRP conjugate (Dakocytomation, P0260). Table 8 summarizes the ratios of the binding signals of anti-CXCR2Nanobodies over an irrelevant control Nanobody.

[2] = molecular target: T2, Human CXCR2; assay: FACS, periplasmic extract vs FMAT Blue Gro-α
Method: Periplasmic extracts (as described above) were analyzed on FACS for competition with Gro-α in binding to human CXCR2. 2×10⁵ cells were incubated with a ½ dilution of periplasmic extracts in FACS buffer (PBS+10% fetal bovine serum (Sigma, F7524)) for 30 minutes at 4° C. Then, an equal volume of 6 nM of FMAT Blue-labeled human Gro-α in FACS buffer was added and incubation was continued for another 30 minutes at 4° C. in the dark. Cells were then washed three times in FACS buffer and finally resuspended in FACS buffer. Dead cells were stained with propidium iodide (Sigma, P4170). Samples were then analyzed on a FACSarray (BD Biosciences).

[3] = molecular target: T2, Human CXCR2; assay: cell-based or functional assay
[4] = molecular target: T2, Human CXCR2; assay: cell-based or functional assay; remark: listed apart in the source
[5] = molecular target: T3, Cynomolgus CXCR2; assay: cell-based or functional assay
[6] = molecular target: T2, Human CXCR2; assay: cell-based or functional assay; remark: listed apart in the source
[7] = molecular target: T3, Cynomolgus CXCR2; assay: cell-based or functional assay
[8] = molecular target: T2, Human CXCR2; assay: FACS competition vs 3 nM FMAT-Blue Gro-α
Method: (§1) Multivalent anti-CXCR2Nanobodies were titrated against 3 nM FMAT-Blue-labeled Gro-α in the FACS ligand competition assay on human and cynomolgus CXCR2 (Table 14). On human CXCR2, blocking potencies range between double digit nM and sub-nM whereas on cynomolgus CXCR2, they range between single and double digit nM.

[9] = molecular target: T3, Cynomolgus CXCR2; assay: FACS competition vs 3 nM FMAT-Blue Gro-α
Method: as §1

Binder	ratio of binding signal relative to blank control [1]	FACS Gro-α competition (% inhibition) [2]	[35S]GTPγS % inhibition of max (GRO-α) [3]	[35S]GTPγS IC50 (GRO-α) [3]	FLIPR % inhibition of max [4]	FLIPR IC50 (GRO-α induced calcium release) [4]	FLIPR % inhibition of max [5]	FLIPR IC50 (GRO-α induced calcium release) [5]	Human WBSC IC50 (rhGROα) [6]	Cynomologus WBSC IC50 (rhGROα) [7]	% inhibition of max [8]	IC50 [8]	% inhibition of max [9]	IC50 [9]	[35S]GTPγS % inhibition of max (ENA-78) [3]	[35S]GTPγS % inhibition of max (IL-8) [3]	[35S]GTPγS IC50 (ENA-78) [3]	[35S]GTPγS IC50 (IL-8) [3]	Human Chemotaxis IC50 (rhGROα) [6]
159B10 (VHH, Tested as periplasmic extract only; not shown: C-terminal c-myc tag and His6 tag coded by the vector) VHH: EVQLVESGGGLVQPGGSLRLSCAASGRTFSSLSMGWFRQAPGKERAFVAALTRNGGYRYYADSVKGRFTISRDVAKKTLYLQMNSLKPEDTAVYYCAADSLSGSDYLGTNLDYWGQGTQVTVSS	0.8 ratio	75.8%	–	–	–	–	–	–	–	–	–	–	–	–	–	–	–	–	–
CXCR20028 (other, Biparatopic: two VHH joined by a GlySer linker; also called 97A9-35GS-54B12; 97A9-54B12; not shown: C-terminal c-myc tag and His6 tag coded by pAX100) EVQLVESGGGLVQPGGSLRLSCVASGSIVRINTMGWYRQTPGKQRELVADITSGGNINYIDAVKGRFTISRDNTKNTVYLQMNSLKPEDTAVYYCNAEIVVLVGVWTQRARTGNYWGQGTQVTVSSGGGGSGGGGSGGGGSGGGGSGGGGSGGGGSGGGGSEVQLVESGGGLVQAGGSLTLSCAVSGSTFRINTMGWYRRAPGKQRELVAARDRGGYINYVDSVKGRFTVSRDNAKPTMYLQMNSLKPEDTAVYYCHAGTQDRTGRNFDRWGQGTQVTVSS	–	–	100%	1.38 nM	100%	21.9 nM	100%	17 nM	0.43 nM	1.72 nM	98.5%	1.63 nM	96%	3.8 nM	–	–	–	–	–
126B11 (VHH, Tested as periplasmic extract only; not shown: C-terminal c-myc tag and His6 tag coded by the vector) VHH: EVQLVESGGGLVQAGGSLTLSCAVSGSSFRINTMGWYRRAPGKQRELVAARDRGGYINYVDSVKGRFTVSRDNAKPTMYLQMNSLKPEDTAVYYCHAGTQDRTGRNFDHWGQGTQVTVSS	–	36.9%	–	–	–	–	–	–	–	–	–	–	–	–	–	–	–	–	–
139A8 (VHH, Tested as periplasmic extract only; also called 139A08; not shown: C-terminal c-myc tag and His6 tag coded by the vector) VHH: EVQLVESGGGLVQAGGSLRLSCAASGRSFSRSAMGWLRQAPGKEREFVAGISWGGDNSYYADSVKGRFTISRDNAKNTVSLQMNSLKPQDTAVYYCAARYRGGAAVAGWEYWGQGTQVTVSS	1 ratio	78.5%	–	–	–	–	–	–	–	–	–	–	–	–	–	–	–	–	–

Next, values leading:

ratio of binding signal relative to blank control [1]	FACS Gro-α competition (% inhibition) [2]	[35S]GTPγS % inhibition of max (GRO-α) [3]	[35S]GTPγS IC50 (GRO-α) [3]	FLIPR % inhibition of max [4]	FLIPR IC50 (GRO-α induced calcium release) [4]	FLIPR % inhibition of max [5]	FLIPR IC50 (GRO-α induced calcium release) [5]	Human WBSC IC50 (rhGROα) [6]	Cynomologus WBSC IC50 (rhGROα) [7]	% inhibition of max [8]	IC50 [8]	% inhibition of max [9]	IC50 [9]	[35S]GTPγS % inhibition of max (ENA-78) [3]	[35S]GTPγS % inhibition of max (IL-8) [3]	[35S]GTPγS IC50 (ENA-78) [3]	[35S]GTPγS IC50 (IL-8) [3]	Human Chemotaxis IC50 (rhGROα) [6]	Binder
–	–	100%	1.02 nM	100%	11.8 nM	100%	6.36 nM	0.215 nM	0.56 nM	99.5%	0.786 nM	98.5%	1.74 nM	100%	100%	1.3 nM	1.09 nM	–	CXCR20030 (other, Biparatopic: two VHH joined by a GlySer linker; also called 163D2-35GS-54B12; 163D2-54B12; not shown: C-terminal c-myc tag and His6 tag coded by pAX100) EVQLVESGGGLVQAGGSLRLSCAASGRTFSDYAMGWFRQAPGKEREFVAAITWNGGRVFYTASVKGRFTISRDNAKNTMYLQMNSLKPEDTAVYYCAADKDRRTDYLGHPVAYWGQGTQVTVSSGGGGSGGGGSGGGGSGGGGSGGGGSGGGGSGGGGSEVQLVESGGGLVQAGGSLTLSCAVSGSTFRINTMGWYRRAPGKQRELVAARDRGGYINYVDSVKGRFTVSRDNAKPTMYLQMNSLKPEDTAVYYCHAGTQDRTGRNFDRWGQGTQVTVSS
–	–	100%	1.01 nM	100%	17.9 nM	100%	4.46 nM	0.345 nM	0.42 nM	100%	0.65 nM	99%	2.2 nM	–	–	–	–	0.15 nM	CXCR20033 (bispecific antibody, Biparatopic: two VHH joined by a GlySer linker; also called 163E3-35GS-2B2; 163E3-2B2; not shown: C-terminal c-myc tag and His6 tag coded by pAX100) EVQLVESGGGLVQPGGSLRLSCVASGRIFSSNAMGWFRQAPGKEREFVAAITWRSGGSAYYADSAKGRFTISRDNAKNTVYLQMNSLKPEDTAVYYCAAGGSSWLSFPPDYWGQGTQVTVSSGGGGSGGGGSGGGGSGGGGSGGGGSGGGGSGGGGSEVQLVESGGELVQPGGSLRLSCAASGSILTINAMGWYRQAPGKQRELVVRRTRGGSTTYQDSVKGRFTISADIAKKTMYLQMNSLKPEDTAVYYCMLDDRGGVYWGQGTQVTVSS

— patent US20130330346A1 (Novartis, published 2013)
